Test results from IntAct's records for PubMed 21408167.

B1: Death-associated protein kinase 2 (Homo sapiens), Q9UIK4-2 (parent)
chain: MFQASMRSPNMEPFKQQKVEDFYDIGEELGSGQFAIVKKCREKSTGLEYAAKFIKKRQSRASRRGVSREEIEREVSILRQVLHHNVITLHDVYENRTDVVLILELVSGGELFDFLAQKESLSEEEATSFIKQILDGVNYLHTKKIAHFDLKPENIMLLDKNIPIPHIKLIDFGLAHEIEDGVEFKNIFGTPEFVAPEIVNYEPLGLEADMWSIGVITYILLSGASPFLGDTKQETLANITAVSYDFDEEFFSQTSELAKDFIRKLLVKETRKRLTIQEALRHPWITSKGEGRAPEQRKTEPTQLKTKHLREYTLKCHSSMPPNNSYVNFERFACVVEDVARVDLGCRALVEAHDTIQDDVEALVSIFNEKEAWYREENESARHDLSQLRYEFRKVESLKKLLREDIQATGCSLGSMARKLDHLQAQFEILRQELSADLQWIQELVGSFQLESGSSEGLGSTFYQDTSESLSELLSRSCTEEFLAGWKL

Variants of: B1
Conditions: with atf4_human ATF4, P18848
Chain of atf4_human ATF4, P18848 (P18848 whole entry): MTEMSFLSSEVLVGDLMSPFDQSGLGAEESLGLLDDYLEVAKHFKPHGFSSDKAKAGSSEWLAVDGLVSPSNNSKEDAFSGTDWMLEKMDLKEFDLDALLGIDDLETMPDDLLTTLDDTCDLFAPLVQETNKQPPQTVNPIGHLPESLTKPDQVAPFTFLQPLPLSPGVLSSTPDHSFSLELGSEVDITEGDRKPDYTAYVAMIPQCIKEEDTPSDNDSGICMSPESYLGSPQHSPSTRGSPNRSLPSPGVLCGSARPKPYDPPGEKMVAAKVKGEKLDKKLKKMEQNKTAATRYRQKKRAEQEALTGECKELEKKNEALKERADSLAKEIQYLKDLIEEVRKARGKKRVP

Question: With L434A;I441A;F448A as the variant, how does the “effect of a mutation on the interaction” value read?
Answer: decreasing interaction
